Experimental data taken from the supplement of paper PMC10567573.

B1: TMEM106C (parent)
chain: FTGRDSITCLTCQGTGYIPTEQVN

Variants of: B1
Experiment: protein stability index of a GFP-peptide fusion (GPS, HEK-293T) (PSI 1-6); higher = more stable
Settings: c terminus: a fixed tail appended
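Further: lentivirally expressed fusions sorted by FACS into six bins by GFP to DsRed ratio, PSI derived from sequencing read proportions per bin multiplied by bin number.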

Protein stability index of substitutions, site by site:
T15: G 1.43, I 2.16, M 2.59, Y 2.52, W 2.34, C 2.26, R 2.26, S 1.56, P 2.1, K 2.12, E 1.64, N 1.62, D 1.81, H 2.09, Q 1.53, A 2.12
Q22: I 1.95, F 1.85, D 1.86, N 2.26, K 1.85, H 1.47, M 2.42, P 1.73, L 2.52, Y 1.9, S 1.79, A 2.07
T11: S 2.01, L 1.66, C 1.86, D 2.42, N 1.86, I 1.52, Y 2.07, H 2.06, K 1.7, M 1.77, V 2.66, R 1.97, G 1.64, E 2.01
T20: S 2.07, M 1.93, P 1.74, W 1.71, N 1.8, K 1.92, H 1.92, Q 2.65, I 1.99, L 2.19, D 2.56, A 2.11, F 1.89, R 2.27
G16: C 1.83, Y 2.08, K 1.56, L 2.13, R 2.21, E 1.7, F 2.71, N 1.49, P 3.09, I 2.94, D 1.56, A 1.92, S 2.05, V 1.85, W 2.98
I7: T 2.78, G 2.16, E 2.89, M 1.76, D 2.83, A 2.22, L 2.07, S 2.39, P 2.23, N 2.15, Q 2.5, R 2.15, F 1.6
G14: N 1.74, M 2.91, C 1.89, R 2.24, V 2.35, W 1.69, P 1.29, Q 1.99, S 1.58, I 2.53, L 2.8, T 2.33, D 1.56, F 2.99, H 1.88
V23: F 1.73, C 2.25, A 2.21, R 2.13, I 1.47, E 1.79, W 1.87, M 1.88, L 1.7, T 2.09, K 2.3, D 1.54, S 1.51, N 2.12
P19: Q 2.05, I 1.84, N 1.96, Y 1.78, H 2.35, F 2.43, G 1.63, K 2, V 2.67, L 2.29, A 2.04, T 2.21, E 2.02, D 1.76
R4: L 1.81, H 1.98, I 2.48, V 1.7, M 2.33, F 2.52, E 2.59, W 2.62, T 1.87, A 1.86
G3: M 2.81, V 2.99, S 1.46, C 1.89, F 1.7, R 2.84, E 2.7, H 1.7, Y 2.45, A 2.79, W 1.48, K 3.49, Q 2.09, T 2.04
F1: Y 1.99, C 3.92, N 4.48, R 4.35, Q 4.65, W 4.06, E 4.7, L 4.16, T 4.76, H 4.52, I 3.94, G 4.15, A 4.7, K 4.29, M 4.77, P 4.63, D 4.88, S 4.33
I18: F 1.86, G 1.48, S 2.09, H 2.4, A 1.93, N 1.61, C 1.91, D 1.96, L 2.55, P 1.58, Y 1.68, W 1.86, T 3.01
C12: V 1.83, T 1.63, R 1.85, I 2.4, Y 2.06, M 2.09, P 1.68, E 2.18, N 2.18, F 2.34, G 2.04, K 2, L 1.79, Q 1.95
T8: V 2.09, K 1.79, E 1.84, Y 2.15, D 2.37, L 2, F 3.56, Q 2.37, P 1.9, N 1.92, S 2.4, C 2.11, W 2.22, A 2.91
Q13: E 1.95, F 2.17, L 2.13, S 1.92, I 2.35, P 1.94, W 2.52, G 2.28, Y 2.38, K 1.96
E21: G 1.76, N 2.39, F 1.22, S 1.94, C 3.11, V 2.59, Q 1.94, M 1.75, D 1.82, A 1.79, W 1.84, I 2.16, P 2.2
D5: H 2.82, S 2.29, P 2.12, N 1.56, Y 3.35, W 3.14, M 2.73, E 1.96, R 1.87, V 4.33, C 3.35, F 3, K 1.84, G 1.49, T 2.15
C9: I 3.25, G 1.75, D 3.16, V 1.9, H 1.73, A 2, M 2.88, F 2.86, Q 1.68, P 2.1, S 2.28, R 1.52, E 2.73, N 1.94
Y17: W 3.54, L 1.84, S 1.68, I 1.92, R 2.34, C 2.13, P 1.91, F 1.64, N 1.93, D 2.17, G 1.47, H 2.61, A 1.8, V 2.55, K 1.94, Q 1.79
L10: D 3.96, I 1.98, P 4.51, W 2.01, K 2.7, V 2.2, T 2.65, F 3, E 3.8, H 2.84, G 2.02, R 2.36, Q 3.17, A 2.29, S 2.85, N 2.77, C 1.99
S6: D 2.58, K 2.34, T 2.43, L 2.16, G 1.9, M 1.79, E 2.73, F 2.38, R 2.45, V 2.5, N 2.58, P 2.18, I 2.92
T2: S 2.07, W 2.31, I 1.97, P 2.82, E 4.48, D 4.1, N 3.32, K 4.3, F 3.19, H 3.35
N24: A 1.89, G 2.29, V 2.24, F 1.92, Q 1.96, W 3.36, Y 2.11, H 2.07, P 1.76, D 2.21, E 2.47, M 1.84, K 2.33, T 2, L 1.91, C 2.25
